# Results published in publication PMC3057930 (Proteins, 2010).
# Like-named read-outs stand apart in the source and are kept apart here. No end group written: not given here. *: point of attachment. FITC = O=C1OC2(c3ccc(O)cc3Oc3cc(O)ccc32)c2ccc(NC(=S)*)cc21
# How the values were obtained:
# Assay in all cases: fluorescence polarisation
# [1] = target: T1, Paramecium calmodulin, full-length (CaM_(1-148)) (Paramecium, UniProt P07463 1-149)
# [2] = target: T2, Paramecium calmodulin N-domain fragment (CaM_(1-80)) (Paramecium, UniProt P07463 2-81)
# [3] = target: T3, Paramecium calmodulin C-domain fragment (CaM_(76-148)) (Paramecium, UniProt P07463 77-149)
# [4] = target: T1, Paramecium calmodulin, full-length …; remark: listed apart in the source
# [5] = target: T2, Paramecium calmodulin N-domain fragment …; remark: listed apart in the source
# [6] = target: T3, Paramecium calmodulin C-domain fragment …; remark: listed apart in the source
binder,measurement,setting,value
{FITC}-ARKEIIRNKIRAIGKMARVFSVLR,Kd,[1],≤ 0.001 µM
same,Kd,[2],7.06 µM
same,Kd,[3],0.96 µM
same,Kd,[4],25 µM
same,Kd,[5],600 µM
same,Kd,[6],44.1 µM
